Reference: the supplement of paper PMC9732359
± gives the uncertainty stated by the source.

Assay: protein stability index of a GFP-peptide fusion (yeast GPS) (PSI 1-4); higher = more stable; sorted into four equal gates, so the index is relative within each strain
Method in brief: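 Plasmids in a pooled yeast library fused tiled 17-residue yeast protein peptides downstream of GFP and also expressed Cherry. Mid-log cultures grown without leucine were sorted into four equal gates by GFP/Cherry fluorescence ratio. Each gate's plasmids were PCR-amplified and Illumina-sequenced, and reads were matched to strains by barcodes. The protein stability index is derived by multiplying each gate's read frequency by its gate number and summing the results.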

**Q.** With SKVVIDSIIDNIVKLCF [IRR1] as the sequence, how does the protein stability index (doa10∆) read?
**A.** The protein stability index was 2.75 ± 0.079.

**Q.** What about the protein stability index (pdr5∆) of the same sequence?
**A.** The protein stability index was 2.32 ± 0.034.

**Q.** What about the protein stability index (san1∆) of the same sequence?
**A.** The protein stability index was 2.2 ± 0.089.

**Q.** And the protein stability index (ubr1∆)?
**A.** Its protein stability index is 2.45 ± 0.026.

**Q.** With SLDFLNQSFIQQKANLL [COR1] as the sequence, how does the protein stability index (pdr5∆) read?
**A.** Its protein stability index is 1.77 ± 0.13.

**Q.** What about the protein stability index (ubr1∆) of the same sequence?
**A.** Its protein stability index is 1.65 ± 0.079.

**Q.** Which results are given for SLEDKILRMGAFRTIES [RRI1]?
**A.** protein stability index (doa10∆): 2.24 ± 0.17; protein stability index (pdr5∆): 2.04 ± 0.2; protein stability index (san1∆): 1.83 ± 0.18; protein stability index (ubr1∆): 2.28 ± 0.073

**Q.** For SLFHIVVDTEETATLIM [SMC3], which protein stability index (doa10∆) is on record?
**A.** The protein stability index was 2.35 ± 0.15.

**Q.** And the protein stability index (pdr5∆)?
**A.** Its protein stability index is 2.17 ± 0.15.

**Q.** And the protein stability index (san1∆)?
**A.** The protein stability index was 1.68 ± 0.17.

**Q.** And the protein stability index (ubr1∆)?
**A.** The protein stability index was 2.23 ± 0.098.

**Q.** Which protein stability index (doa10∆) does the source give for SLFSHRKHTRGDVSSGL [BRN1] here?
**A.** Its protein stability index is 3.28 ± 0.19.

**Q.** And the protein stability index (pdr5∆)?
**A.** The protein stability index was 3.01 ± 0.17.

**Q.** And the protein stability index (san1∆)?
**A.** Its protein stability index is 3.28 ± 0.16.

**Q.** And the protein stability index (ubr1∆)?
**A.** The protein stability index was 3.22 ± 0.059.

**Q.** With SLGFNEVFSRPEWMILT [RPO21] as the sequence, how does the protein stability index (doa10∆) read?
**A.** The protein stability index was 1.5 ± 0.11.

**Q.** What about the protein stability index (pdr5∆) of the same sequence?
**A.** The protein stability index was 1.74 ± 0.1.

**Q.** And the protein stability index (san1∆)?
**A.** Its protein stability index is 1.62 ± 0.12.

**Q.** And the protein stability index (ubr1∆)?
**A.** Its protein stability index is 1.21 ± 0.066.

**Q.** With SLHILMIFWNDICQIDT [SRB8] as the sequence, how does the protein stability index (doa10∆) read?
**A.** The protein stability index was 1.36 ± 0.031.

**Q.** And the protein stability index (pdr5∆)?
**A.** The protein stability index was 1.33 ± 0.032.

**Q.** And the protein stability index (san1∆)?
**A.** Its protein stability index is 1.52 ± 0.053.

**Q.** What about the protein stability index (ubr1∆) of the same sequence?
**A.** Its protein stability index is 1.92 ± 0.029.

**Q.** With SLHRQQQQQQQQVPPLP [DLS1] as the sequence, how does the protein stability index (doa10∆) read?
**A.** Its protein stability index is 2.78 ± 0.056.

**Q.** What about the protein stability index (pdr5∆) of the same sequence?
**A.** Its protein stability index is 2.81 ± 0.06.

**Q.** And the protein stability index (san1∆)?
**A.** The protein stability index was 2.63 ± 0.046.

**Q.** What about the protein stability index (ubr1∆) of the same sequence?
**A.** Its protein stability index is 2.94 ± 0.061.

**Q.** With SLIIDQQENSKSGKRKP [RPC31] as the sequence, how does the protein stability index (doa10∆) read?
**A.** The protein stability index was 2.71 ± 0.099.

**Q.** What about the protein stability index (pdr5∆) of the same sequence?
**A.** Its protein stability index is 2.7 ± 0.1.

**Q.** What about the protein stability index (san1∆) of the same sequence?
**A.** The protein stability index was 2.69 ± 0.086.

**Q.** What about the protein stability index (ubr1∆) of the same sequence?
**A.** Its protein stability index is 2.7 ± 0.092.

**Q.** With SLIKETNQLVLLQKMLN [YML103C/NUP188] as the sequence, how does the protein stability index (pdr5∆) read?
**A.** The protein stability index was 1.29 ± 0.094.

**Q.** And the protein stability index (san1∆)?
**A.** Its protein stability index is 1.06 ± 0.096.

**Q.** And the protein stability index (ubr1∆)?
**A.** The protein stability index was 1.02 ± 0.077.

**Q.** For SLKGLQSKLKDVVEYLD [RPN8], which protein stability index (doa10∆) is on record?
**A.** Its protein stability index is 2.92 ± 0.083.

**Q.** And the protein stability index (pdr5∆)?
**A.** The protein stability index was 2.27 ± 0.055.

**Q.** What about the protein stability index (san1∆) of the same sequence?
**A.** Its protein stability index is 2.71 ± 0.069.

**Q.** And the protein stability index (ubr1∆)?
**A.** The protein stability index was 2.48 ± 0.048.

**Q.** For SLLASKSTYRTPNFDDV [RIP1], which protein stability index (doa10∆) is on record?
**A.** Its protein stability index is 2.78 ± 0.29.

**Q.** What about the protein stability index (ubr1∆) of the same sequence?
**A.** The protein stability index was 3.49 ± 0.17.

**Q.** For SLNEKNALHTERLHELK [SMC1], which protein stability index (doa10∆) is on record?
**A.** The protein stability index was 3.36 ± 0.061.

**Q.** What about the protein stability index (pdr5∆) of the same sequence?
**A.** Its protein stability index is 3.11 ± 0.065.

**Q.** And the protein stability index (san1∆)?
**A.** Its protein stability index is 2.89 ± 0.067.

**Q.** And the protein stability index (ubr1∆)?
**A.** The protein stability index was 2.81 ± 0.054.

**Q.** For SLNTKKNEKLILEESLN [SMC3], which protein stability index (doa10∆) is on record?
**A.** The protein stability index was 2.18 ± 0.064.

**Q.** What about the protein stability index (pdr5∆) of the same sequence?
**A.** The protein stability index was 2 ± 0.074.

**Q.** And the protein stability index (san1∆)?
**A.** The protein stability index was 2.59 ± 0.15.

**Q.** What about the protein stability index (ubr1∆) of the same sequence?
**A.** The protein stability index was 2.6 ± 0.078.

**Q.** For SLPRFSKPVLIVGQKNL [DIS3], which protein stability index (doa10∆) is on record?
**A.** The protein stability index was 2.2 ± 0.089.

**Q.** What about the protein stability index (pdr5∆) of the same sequence?
**A.** The protein stability index was 2.42 ± 0.074.

**Q.** What about the protein stability index (san1∆) of the same sequence?
**A.** The protein stability index was 1.77 ± 0.082.

**Q.** And the protein stability index (ubr1∆)?
**A.** Its protein stability index is 1.7 ± 0.12.

**Q.** What does the source list for SLQQMQHLQQLKMQQQQ [GAL11]?
**A.** protein stability index (doa10∆): 2.05 ± 0.096; protein stability index (pdr5∆): 2.09 ± 0.06; protein stability index (san1∆): 2.36 ± 0.099; protein stability index (ubr1∆): 1.41 ± 0.08

**Q.** With SLQYIERQQDELENFLD [YJL041W/NSP1] as the sequence, how does the protein stability index (doa10∆) read?
**A.** Its protein stability index is 3.1 ± 0.1.

**Q.** And the protein stability index (pdr5∆)?
**A.** Its protein stability index is 3.04 ± 0.14.

**Q.** What about the protein stability index (san1∆) of the same sequence?
**A.** The protein stability index was 3.43 ± 0.096.

**Q.** What about the protein stability index (ubr1∆) of the same sequence?
**A.** The protein stability index was 3.12 ± 0.054.

**Q.** With SLRRQVKKLEIQQHARY [RPL43A] as the sequence, how does the protein stability index (doa10∆) read?
**A.** The protein stability index was 2.75 ± 0.11.

**Q.** What about the protein stability index (pdr5∆) of the same sequence?
**A.** Its protein stability index is 2.89 ± 0.1.

**Q.** And the protein stability index (san1∆)?
**A.** Its protein stability index is 2.96 ± 0.077.

**Q.** And the protein stability index (ubr1∆)?
**A.** Its protein stability index is 3.29 ± 0.09.

**Q.** Which results are given for SLTEKFSQTVADNNDLQ [ECM29]?
**A.** protein stability index (doa10∆): 2.48 ± 0.049; protein stability index (pdr5∆): 2.71 ± 0.056; protein stability index (san1∆): 2.64 ± 0.068; protein stability index (ubr1∆): 2.35 ± 0.048

**Q.** With SLTQSVCDLALRFGEGA [PUP2] as the sequence, how does the protein stability index (doa10∆) read?
**A.** Its protein stability index is 2.66 ± 0.19.

**Q.** And the protein stability index (pdr5∆)?
**A.** The protein stability index was 3.34 ± 0.21.

**Q.** And the protein stability index (ubr1∆)?
**A.** Its protein stability index is 3.11 ± 0.21.

**Q.** For SLYIFFTTLLESKQDGL [YML103C/NUP188], which protein stability index (doa10∆) is on record?
**A.** Its protein stability index is 2.29 ± 0.12.

**Q.** What about the protein stability index (pdr5∆) of the same sequence?
**A.** Its protein stability index is 1.42 ± 0.085.

**Q.** What about the protein stability index (san1∆) of the same sequence?
**A.** Its protein stability index is 1.25 ± 0.1.

**Q.** And the protein stability index (ubr1∆)?
**A.** The protein stability index was 1.19 ± 0.036.

**Q.** Which protein stability index (doa10∆) does the source give for SMFLRIDYSNSQIRLYA [RGR1] here?
**A.** The protein stability index was 2.9 ± 0.076.

**Q.** And the protein stability index (pdr5∆)?
**A.** Its protein stability index is 2.44 ± 0.066.

**Q.** And the protein stability index (san1∆)?
**A.** The protein stability index was 2.4 ± 0.068.

**Q.** What about the protein stability index (ubr1∆) of the same sequence?
**A.** The protein stability index was 2.44 ± 0.043.

**Q.** With SMLFKTSQKMTSTVNRL [MCD1] as the sequence, how does the protein stability index (doa10∆) read?
**A.** The protein stability index was 2.22 ± 0.073.

**Q.** And the protein stability index (pdr5∆)?
**A.** The protein stability index was 2.77 ± 0.15.

**Q.** And the protein stability index (san1∆)?
**A.** The protein stability index was 2.33 ± 0.14.

**Q.** What about the protein stability index (ubr1∆) of the same sequence?
**A.** Its protein stability index is 3.04 ± 0.14.

**Q.** What does the source list for SMNATMRNFSKQNQDSK [YDL088C/ASM4]?
**A.** protein stability index (doa10∆): 2.86 ± 0.14; protein stability index (pdr5∆): 2.99 ± 0.24; protein stability index (san1∆): 1.94 ± 0.27; protein stability index (ubr1∆): 2.84 ± 0.24

**Q.** Which protein stability index (doa10∆) does the source give for SMVYSNVGELIEKNVME [RRP4] here?
**A.** Its protein stability index is 2.06 ± 0.052.

**Q.** What about the protein stability index (pdr5∆) of the same sequence?
**A.** The protein stability index was 2.66 ± 0.053.

**Q.** What about the protein stability index (san1∆) of the same sequence?
**A.** Its protein stability index is 2.55 ± 0.056.

**Q.** What about the protein stability index (ubr1∆) of the same sequence?
**A.** The protein stability index was 2.03 ± 0.048.

**Q.** With SNDERIVKRLYEYGAVS [BRR2] as the sequence, how does the protein stability index (doa10∆) read?
**A.** Its protein stability index is 2.71 ± 0.076.

**Q.** And the protein stability index (pdr5∆)?
**A.** The protein stability index was 2.97 ± 0.07.

**Q.** And the protein stability index (san1∆)?
**A.** The protein stability index was 3.14 ± 0.056.

**Q.** What about the protein stability index (ubr1∆) of the same sequence?
**A.** The protein stability index was 3.14 ± 0.049.

**Q.** Which protein stability index (doa10∆) does the source give for SNDPDVNNTRRRVYNRV [BRN1] here?
**A.** Its protein stability index is 2.81 ± 0.14.

**Q.** And the protein stability index (pdr5∆)?
**A.** The protein stability index was 3.52 ± 0.19.

**Q.** And the protein stability index (san1∆)?
**A.** The protein stability index was 3 ± 0.14.

**Q.** And the protein stability index (ubr1∆)?
**A.** Its protein stability index is 3.69 ± 0.24.

**Q.** For SNDRVNPLIELTPIQKK [ITC1], which protein stability index (doa10∆) is on record?
**A.** Its protein stability index is 2.92 ± 0.2.

**Q.** What about the protein stability index (pdr5∆) of the same sequence?
**A.** Its protein stability index is 1.99 ± 0.13.

**Q.** What about the protein stability index (san1∆) of the same sequence?
**A.** Its protein stability index is 2.15 ± 0.27.

**Q.** And the protein stability index (ubr1∆)?
**A.** The protein stability index was 2.65 ± 0.11.
